# Residue numbers refer to the chain shown, from its start. Numbers in names are those of the source. Read-outs that look alike come from different tables or passages of the source.
# T1: human ActRIIB (human, UniProt Q13705 19-137, limits assumed)
# T1 construct: antigen in MSD-SET; also called ACVR2B; ActR2B
# T1 sequence: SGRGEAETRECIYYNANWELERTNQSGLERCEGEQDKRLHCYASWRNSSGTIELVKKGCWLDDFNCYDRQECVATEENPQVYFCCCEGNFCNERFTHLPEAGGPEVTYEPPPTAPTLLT
# B1: Bimagrumab (antibody, V domains shown)
# VH: QVQLVQSGAEVKKPGASVKVSCKASGYTFTSSYINWVRQAPGQGLEWMGTINPVSGSTSYAQKFQGRVTMTRDTSISTAYMELSRLRSDDTAVYYCARGGWFDYWGQGTLVTVSS
# VL: QSALTQPASVSGSPGQSITISCTGTSSDVGSYNYVNWYQQHPGKAPKLMIYGVSKRPSGVSNRFSGSKSGNTASLTISGLQAEDEADYYCGTFAGGSYYGVFGGGTKLTVL
# B2: Ofaschlupfer Fab (Fab, V domains shown)
# VH: B1 VH with A16S, P53A, M70I, R72A, I76T, R85S, D89E
# VL: B1 VL with A8R, I18V, Y32K, P57E, S61P, N62D, S97K
# notes: Fab
# B3: Antibody Bäratatza (antibody, V domains shown)
# VH: B1 VH with P53A, G99S
# VL: B1 VL with R56Q, P57Q
# notes: full-length IgG
# B4: Antibody Springerle (antibody, V domains shown)
# VH: B1 VH
# VL: B1 VL with P57E, Y99R
# notes: full-length IgG
# B5: Antibody Fasnetsküchla (antibody, V domains shown)
# VH: B1 VH with P53A
# VL: B1 VL with Y32A, L48P, K55R, S97K
# notes: full-length IgG
# B6: Antibody Rippla (antibody, V domains shown)
# VH: B1 VH with K12R
# VL: B1 VL with Y34R, P57E, S97R
# notes: full-length IgG; also called Ripp1a
# B7: Antibody Biiramooscht (antibody, V domains shown)
# VH: B1 VH
# VL: B1 VL with P57E, S97A
# notes: full-length IgG
# B8: Schwardamaga, Mouse IgG2a-PALALA (antibody, V domains shown)
# VH: B1 VH with A16S, P53A, M70I, R72A, I76T, R85S, D89E
# VL: B1 VL with A8R, I18V, Y32A, L48P, K55R, S61P, N62D, S97K
# notes: mouse IgG2a constant region with PALALA
# B9: Soidawürstle, Human IgG1-PALALA-YTE (antibody, V domains shown)
# VH: B1 VH with K12R, A16S, M70I, R72A, I76T, R85S, D89E
# VL: B1 VL with A8R, I18V, Y34R, P57E, S61P, N62D, S97R
# notes: human IgG1 with PA-LALA (L234A/L235A/P329A) and YTE (M252Y/S254T/T256E), EU numbering
# B10: Schwardamaga, Human IgG1-PALALA-YTE (antibody, V domains shown)
# VH: B1 VH with A16S, P53A, M70I, R72A, I76T, R85S, D89E
# VL: B1 VL with A8R, I18V, Y32A, L48P, K55R, S61P, N62D, S97K
# notes: as for B9
# B11: Bebballesgmias Fab (Fab, V domains shown)
# VH: B1 VH with A16S, T28K, M70I, R72A, I76T, R85S, D89E
# VL: B1 VL with A8R, I18V, S58R, S61P, N62D
# notes: Fab
# B12: Soidawürstle, Mouse IgG2a-PALALA (antibody, V domains shown)
# VH: B1 VH with K12R, A16S, M70I, R72A, I76T, R85S, D89E
# VL: B1 VL with A8R, I18V, Y34R, P57E, S61P, N62D, S97R
# notes: as for B8
# B13: Soidawürstle, Human IgG1-PALALA (antibody, V domains shown)
# VH: B1 VH with K12R, A16S, M70I, R72A, I76T, R85S, D89E
# VL: B1 VL with A8R, I18V, Y34R, P57E, S61P, N62D, S97R
# notes: human IgG1 with PA-LALA (L234A/L235A/P329A), EU numbering
# B14: Antibody Bäradreck (antibody, V domains shown)
# VH: B1 VH with A16S, M70I, R72A, I76T, R85S, D89E
# VL: B1 VL with A8R, I18V, S61P, N62D
# notes: full-length IgG
# B15: Bäradreck Fab (Fab, V domains shown)
# VH: B1 VH with A16S, M70I, R72A, I76T, R85S, D89E
# VL: B1 VL with A8R, I18V, S61P, N62D
# notes: Fab
# Columns and labels:
# [1] = target: T2, ActRIIA and ActRIIB (on TGFB/SMAD SBE Reporter HEK293 cells) (human)
# [2] = target: T2, ActRIIA and ActRIIB (on TGFB/SMAD SBE …); assay: cell-based or functional assay
# [3] = target: T2, ActRIIA and ActRIIB (on TGFB/SMAD SBE …); remark: listed apart in the source
# [4] = target: T2, ActRIIA and ActRIIB (on TGFB/SMAD SBE …); assay: cell-based or functional assay; remark: listed apart in the source
# [5] = target: T2, ActRIIA and ActRIIB (on TGFB/SMAD SBE …); assay: cell-based or functional assay; remark: listed apart in the source
# [6] = target: T2, ActRIIA and ActRIIB (on TGFB/SMAD SBE …); assay: cell-based or functional assay; remark: listed apart in the source
# [7] = target: T2, ActRIIA and ActRIIB (on TGFB/SMAD SBE …); assay: cell-based or functional assay; remark: listed apart in the source
# [8] = target: T1, human ActRIIB; assay: MSD-SET
# [9] = target: T1, human ActRIIB; assay: MSD-SET, preliminary
# [10] = target: mouse ActRIIA (mouse, UniProt P27038 20-135, limits assumed); assay: MSD-SET
# [11] = target: Pig ActRIIA (pig, UniProt F1S0H6 20-135); assay: MSD-SET
# [12] = target: T1, human ActRIIB; assay: MSD-SET; remark: listed apart in the source
# [13] = target: T3, human ActRIIA (human, UniProt P27037 20-135, limits assumed); assay: MSD-SET
# T3 construct: antigen in MSD-SET; also called ACVR2A; ActR2A
# [14] = target: T3, human ActRIIA; assay: MSD-SET; remark: listed apart in the source
# [15] = target: T1, human ActRIIB; assay: MSD-SET; remark: listed apart in the source
# [16] = target: T3, human ActRIIA; assay: MSD-SET; remark: listed apart in the source
# [17] = target: T3, human ActRIIA; assay: MSD-SET; remark: listed apart in the source
# [18] = target: T1, human ActRIIB; assay: MSD-SET; remark: listed apart in the source
# [19] = target: T3, human ActRIIA; assay: MSD-SET; remark: listed apart in the source
# [20] = target: T3, human ActRIIA; assay: MSD-SET; remark: listed apart in the source
# [21] = target: T3, human ActRIIA; assay: MSD-SET, preliminary
# T3 sequence (P27037 20-135 limits assumed): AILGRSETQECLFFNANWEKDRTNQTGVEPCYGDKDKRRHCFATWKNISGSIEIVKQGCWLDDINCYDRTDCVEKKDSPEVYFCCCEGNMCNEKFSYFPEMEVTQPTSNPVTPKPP
# Sequence of mouse ActRIIA (P27038 20-135 limits assumed): as the sequence (P27037 20-135 limits assumed) above, with K20R, V73I counted along it
binder,measurement,setting,value
B1,IC50 (read off the curve); Myostatin-stimulated SMAD reporter gene assay,[1],400 pM
same,"IC50, Myostatin SMAD RGA",[2],292 pM
same,IC50 (read off the curve); Activin-stimulated SMAD reporter gene assay,[3],300 pM
same,IC50 [nM] (assay not given),[4],0.294 nM
same,IC90 [nM] (assay not given),[4],6.57 nM
same,"IC50, Activin SMAD RGA",[5],500 pM
same,"IC50, Myostatin SMAD RGA",[6],560 pM
same,"IC50, myostatin inhibition (SMAD RGA)",[6],292 pM
same,IC50 [nM] (assay not given),[6],0.517 nM
same,"IC90, Activin SMAD RGA",[6],9380 pM
same,"IC90, Myostatin SMAD RGA",[6],13500 pM
same,IC90 [nM] (assay not given),[6],8.07 nM
same,"IC95, Activin SMAD RGA",[6],37900 pM
same,"IC95, Myostatin SMAD RGA",[6],55200 pM
same,"IC99, Activin SMAD RGA",[6],829 nM
same,"IC99, Myostatin SMAD RGA",[6],2680 nM
same,"IC50, Activin SMAD RGA",[7],320 pM
same,"IC95, Activin SMAD RGA",[7],19600 pM
same,"IC99, Activin SMAD RGA",[7],206 nM
B2,Kd,[8],3.3 pM
same,Kd,[9],25.3 pM
same,Kd,[10],18 pM
same,Kd,[11],10 pM
same,Kd,[12],2 pM
B3,Fold Difference to bimagrumab,[13],49.5 fold
same,Kd,[13],23 pM
same,IC50 [nM] (assay not given),[4],0.105 nM
same,IC50 fold difference to bimagrumab (assay not given),[4],2.8 fold
same,IC90 [nM] (assay not given),[4],2.77 nM
same,IC90 fold difference to bimagrumab (assay not given),[4],2.4 fold
same,"IC50, Activin SMAD RGA",[6],138 pM
same,"IC50, Myostatin SMAD RGA",[6],53.7 pM
same,"IC90, Activin SMAD RGA",[6],2140 pM
same,"IC90, Myostatin SMAD RGA",[6],491 pM
same,Kd,[14],23 pM
same,Kd,[15],5 pM
B4,Fold Difference to bimagrumab,[16],7.3 fold
same,Kd,[16],27 pM
same,"IC50, Activin SMAD RGA",[6],94 pM
same,IC50 [nM] (assay not given),[6],0.0946 nM
same,IC50 fold difference to bimagrumab (assay not given),[6],5.46 fold
same,"IC90, Activin SMAD RGA",[6],1380 pM
same,IC90 [nM] (assay not given),[6],1.5 nM
same,IC90 fold difference to bimagrumab (assay not given),[6],5.4 fold
same,Kd,[14],27 pM
B5,IC50 (read off the curve); Myostatin-stimulated SMAD reporter gene assay,[1],700 pM
same,Kd,[17],29 pM
same,Kd,[18],8 pM
same,IC50 (read off the curve); Activin-stimulated SMAD reporter gene assay,[3],300 pM
same,"IC50, Activin SMAD RGA",[5],430 pM
same,"IC50, Myostatin SMAD RGA",[5],480 pM
same,"IC50, Activin SMAD RGA",[6],347 pM
same,"IC50, Myostatin SMAD RGA",[6],513 pM
same,"IC90, Activin SMAD RGA",[6],3820 pM
same,"IC90, Myostatin SMAD RGA",[6],4630 pM
same,Kd,[14],29 pM
same,Kd,[15],8 pM
B6,IC50 (read off the curve); Myostatin-stimulated SMAD reporter gene assay,[1],200 pM
same,Kd,[17],42 pM
same,Kd,[18],5 pM
same,Fold Difference to bimagrumab,[16],4 fold
same,Kd,[16],41 pM
same,IC50 (read off the curve); Activin-stimulated SMAD reporter gene assay,[3],200 pM
same,"IC50, Activin SMAD RGA",[5],90 pM
same,"IC50, Myostatin SMAD RGA",[5],150 pM
same,"IC50, Activin SMAD RGA",[6],58.2 pM
same,"IC50, Myostatin SMAD RGA",[6],213 pM
same,IC50 [nM] (assay not given),[6],0.0209 nM
same,IC50 fold difference to bimagrumab (assay not given),[6],25.6 fold
same,"IC90, Activin SMAD RGA",[6],1580 pM
same,"IC90, Myostatin SMAD RGA",[6],9650 pM
same,IC90 [nM] (assay not given),[6],1.27 nM
same,IC90 fold difference to bimagrumab (assay not given),[6],6.33 fold
same,Kd,[14],41 pM
same,Kd,[15],5 pM
B7,Kd,[17],28 pM
same,Kd,[18],5 pM
same,Fold Difference to bimagrumab,[16],6.4 fold
same,Kd,[16],28 pM
same,"IC50, Activin SMAD RGA",[5],210 pM
same,"IC50, Myostatin SMAD RGA",[5],270 pM
same,"IC50, Activin SMAD RGA",[6],161 pM
same,"IC50, Myostatin SMAD RGA",[6],222 pM
same,IC50 [nM] (assay not given),[6],0.086 nM
same,IC50 fold difference to bimagrumab (assay not given),[6],6.02 fold
same,"IC90, Activin SMAD RGA",[6],1580 pM
same,"IC90, Myostatin SMAD RGA",[6],2780 pM
same,IC90 [nM] (assay not given),[6],1.16 nM
same,IC90 fold difference to bimagrumab (assay not given),[6],6.98 fold
same,Kd,[14],28 pM
same,Kd,[15],5 pM
B8,Kd,[19],39 pM
same,Kd,[12],16 pM
B9,Kd,[19],34 pM
same,Kd,[12],5 pM
B10,Kd,[19],40 pM
same,Kd,[12],13 pM
B11,Kd,[20],285 pM
same,Kd,[21],285 pM
same,Kd,[9],25.1 pM
B12,Kd,[19],27 pM
same,Kd,[12],3 pM
B13,Kd,[19],25 pM
same,Kd,[12],6 pM
B14,Kd,[20],112 pM
same,Kd,[8],63.8 pM
same,Kd,[21],112 pM
same,Kd,[9],63.8 pM
same,"IC50, Activin SMAD RGA",[6],256 pM
same,"IC50, Myostatin SMAD RGA",[6],255 pM
same,"IC50, myostatin inhibition (SMAD RGA)",[6],255 pM
same,"IC90, Activin SMAD RGA",[6],4990 pM
same,"IC90, Myostatin SMAD RGA",[6],4050 pM
B15,Kd,[20],655 pM
same,Kd,[8],1.4 pM
same,Kd,[21],655 pM
same,Kd,[9],56.3 pM

# — US20250243286A1 (SIXPEAKS BIO, published 2025)
